± gives the uncertainty stated by the source.
B1: Tumor protein 63, residues 545 to 610; numbered along this chain, Q9H3D4 (parent)
chain: TDCSIVSFLARLGCSSCLDYFTTQGLTTIYQIEHYSMDDLASLKIPEQFRHAIWKGILDHRQLHEF

Variants of: B1
Test: abundance fitness (aPCA) (normalised: wild type 0, dead -1); higher = more abundant; growth selection in yeast, the domain comes from the species named
Conditions: Homo sapiens
Work on L18C yielded an abundance fitness of 0.007 ± 0.026.
With L18Q the abundance fitness was -0.002 ± 0.063.
Variant L18T has an abundance fitness of -0.008 ± 0.022.
L18A gave an abundance fitness of -0.008 ± 0.037.
L18N gave an abundance fitness of -0.047 ± 0.029.
In the case of L18K, the abundance fitness is reported as 0.061 ± 0.12.
With L18R the abundance fitness was -0.072 ± 0.027.
Work on L18P yielded an abundance fitness of -0.551 ± 0.034.
With L18D the abundance fitness was -0.09 ± 0.036.
L18S gave an abundance fitness of -0.018 ± 0.022.
In the case of L18M, the abundance fitness is reported as -0.008 ± 0.044.
With L18Y the abundance fitness was -0.047 ± 0.025.
L18H gave an abundance fitness of -0.126 ± 0.023.
Work on L18W yielded an abundance fitness of -0.203 ± 0.08.
In the case of L18F, the abundance fitness is reported as -0.16 ± 0.031.
Work on L18G yielded an abundance fitness of -0.08 ± 0.031.
Work on L18I yielded an abundance fitness of -0.036 ± 0.029.
For L18E, the abundance fitness was -0.014 ± 0.066.
L18V showed an abundance fitness of -0.013 ± 0.022.
G13T gave an abundance fitness of -0.188 ± 0.073.
G13H showed an abundance fitness of -0.174 ± 0.095.
Variant G13Q has an abundance fitness of -0.04 ± 0.094.
G13Y gave an abundance fitness of -0.298 ± 0.057.
For G13R, the abundance fitness was -0.077 ± 0.024.
Work on G13E yielded an abundance fitness of -0.071 ± 0.04.
G13W gave an abundance fitness of -0.829 ± 0.063.
G13V gave an abundance fitness of -0.804 ± 0.042.
In the case of G13M, the abundance fitness is reported as -0.178 ± 0.036.
With G13A the abundance fitness was -0.117 ± 0.037.
With G13D the abundance fitness was 0.004 ± 0.047.
With G13S the abundance fitness was -0.076 ± 0.027.
Variant G13L has an abundance fitness of -0.438 ± 0.029.
In the case of G13N, the abundance fitness is reported as -0.013 ± 0.058.
G13I gave an abundance fitness of -0.814 ± 0.41.
In the case of G13P, the abundance fitness is reported as -0.935 ± 0.13.
Work on G13F yielded an abundance fitness of -0.45 ± 0.05.
In the case of V6Y, the abundance fitness is reported as -0.11 ± 0.036.
Variant V6S has an abundance fitness of 0.003 ± 0.026.
In the case of V6R, the abundance fitness is reported as -0.012 ± 0.028.
With V6M the abundance fitness was -0.017 ± 0.027.
Variant V6I has an abundance fitness of -0.034 ± 0.032.
Variant V6K has an abundance fitness of 0.009 ± 0.032.
V6G showed an abundance fitness of -0.032 ± 0.024.
For V6T, the abundance fitness was 0.016 ± 0.035.
Work on V6W yielded an abundance fitness of -0.073 ± 0.027.
V6F showed an abundance fitness of -0.06 ± 0.036.
Work on V6N yielded an abundance fitness of -0.031 ± 0.028.
With V6P the abundance fitness was -0.077 ± 0.026.
Work on V6L yielded an abundance fitness of -0.007 ± 0.029.
Variant Y20C has an abundance fitness of -0.08 ± 0.056.
For Y20R, the abundance fitness was -0.043 ± 0.022.
In the case of Y20P, the abundance fitness is reported as -0.387 ± 0.037.
With Y20M the abundance fitness was -0.02 ± 0.027.
In the case of Y20W, the abundance fitness is reported as -0.097 ± 0.033.
For Y20Q, the abundance fitness was -0.09 ± 0.049.
In the case of Y20N, the abundance fitness is reported as -0.022 ± 0.033.
In the case of Y20I, the abundance fitness is reported as -0.002 ± 0.039.
For Y20V, the abundance fitness was -0.109 ± 0.024.
Work on Y20G yielded an abundance fitness of -0.268 ± 0.022.
Y20A showed an abundance fitness of -0.028 ± 0.021.
Y20E showed an abundance fitness of -0.139 ± 0.03.
Y20D showed an abundance fitness of -0.175 ± 0.038.
Y20L showed an abundance fitness of -0.044 ± 0.028.
Y20K showed an abundance fitness of -0.02 ± 0.024.
D19M gave an abundance fitness of -0.086 ± 0.034.
Variant D19G has an abundance fitness of -0.032 ± 0.031.
For D19I, the abundance fitness was -0.067 ± 0.036.
Work on D19P yielded an abundance fitness of 0.004 ± 0.026.
In the case of D19F, the abundance fitness is reported as -0.09 ± 0.031.
D19A showed an abundance fitness of -0.05 ± 0.027.
Variant D19L has an abundance fitness of -0.089 ± 0.019.
In the case of D19N, the abundance fitness is reported as 0.004 ± 0.051.
In the case of D19R, the abundance fitness is reported as -0.019 ± 0.023.
For D19W, the abundance fitness was -0.058 ± 0.03.
In the case of D19C, the abundance fitness is reported as -0.079 ± 0.044.
With D19Q the abundance fitness was -0.087 ± 0.056.
Work on D19E yielded an abundance fitness of -0.015 ± 0.036.
Work on D19Y yielded an abundance fitness of -0.103 ± 0.024.
With D19T the abundance fitness was -0.002 ± 0.035.
D19V gave an abundance fitness of -0.081 ± 0.029.
Variant D19K has an abundance fitness of -0.024 ± 0.031.
For Q24A, the abundance fitness was -0.025 ± 0.036.
For Q24Y, the abundance fitness was -0.121 ± 0.034.
In the case of Q24V, the abundance fitness is reported as -0.04 ± 0.027.
Variant Q24F has an abundance fitness of -0.12 ± 0.044.
Q24P showed an abundance fitness of -0.21 ± 0.033.
Q24S showed an abundance fitness of -0.037 ± 0.024.
In the case of Q24L, the abundance fitness is reported as -0.081 ± 0.021.
For Q24N, the abundance fitness was -0.089 ± 0.083.
In the case of Q24W, the abundance fitness is reported as -0.138 ± 0.023.
With Q24R the abundance fitness was -0.023 ± 0.017.
In the case of Q24D, the abundance fitness is reported as -0.152 ± 0.036.
Q24E showed an abundance fitness of -0.039 ± 0.035.
Q24G showed an abundance fitness of -0.081 ± 0.022.
For Q24K, the abundance fitness was -0.018 ± 0.027.
Q24T showed an abundance fitness of -0.062 ± 0.026.
With Q24I the abundance fitness was -0.073 ± 0.06.
Work on Q24H yielded an abundance fitness of -0.015 ± 0.041.
Q24M showed an abundance fitness of -0.067 ± 0.034.
Q24C gave an abundance fitness of -0.048 ± 0.032.
Variant S15T has an abundance fitness of 0 ± 0.029.
S15P showed an abundance fitness of -0.086 ± 0.031.
Variant S15K has an abundance fitness of -0.037 ± 0.034.
Variant S15R has an abundance fitness of -0.052 ± 0.023.
S15H gave an abundance fitness of -0.031 ± 0.038.
Variant S15N has an abundance fitness of -0.034 ± 0.026.
For S15M, the abundance fitness was -0.076 ± 0.034.
Variant S15L has an abundance fitness of -0.061 ± 0.025.
In the case of S15E, the abundance fitness is reported as -0.067 ± 0.049.
In the case of S15Q, the abundance fitness is reported as 0.008 ± 0.033.
Work on S15V yielded an abundance fitness of -0.077 ± 0.031.
S15A gave an abundance fitness of -0.046 ± 0.026.
With S15F the abundance fitness was -0.157 ± 0.029.
S15C showed an abundance fitness of -0.057 ± 0.037.
In the case of S15D, the abundance fitness is reported as -0.064 ± 0.055.
Variant S15I has an abundance fitness of -0.042 ± 0.04.
With S15Y the abundance fitness was -0.096 ± 0.043.
With S15G the abundance fitness was -0.059 ± 0.029.
S15W gave an abundance fitness of -0.179 ± 0.03.
L9A showed an abundance fitness of -1 ± 0.093.
In the case of L9E, the abundance fitness is reported as -0.666 ± 0.054.
L9Y gave an abundance fitness of -0.783 ± 0.12.
For L9S, the abundance fitness was -0.869 ± 0.043.
L9Q showed an abundance fitness of -1.03 ± 0.11.
In the case of L9N, the abundance fitness is reported as -0.814 ± 0.14.
Variant L9D has an abundance fitness of -0.474 ± 0.15.
With L9R the abundance fitness was -0.83 ± 0.039.
Variant L9P has an abundance fitness of -0.928 ± 0.14.
Variant L9T has an abundance fitness of -1.04 ± 0.1.
L9W showed an abundance fitness of -0.955 ± 0.041.
L9K gave an abundance fitness of -1 ± 0.09.
Variant L9I has an abundance fitness of -0.421 ± 0.059.
With L9C the abundance fitness was -0.344 ± 0.06.
L9G showed an abundance fitness of -0.622 ± 0.039.
For L9H, the abundance fitness was -1.02 ± 0.37.
In the case of L9M, the abundance fitness is reported as -0.272 ± 0.036.
With L9F the abundance fitness was -0.626 ± 0.07.
Work on F8S yielded an abundance fitness of -0.822 ± 0.044.
In the case of F8R, the abundance fitness is reported as -0.918 ± 0.079.
In the case of F8G, the abundance fitness is reported as -1.01 ± 0.084.
In the case of F8H, the abundance fitness is reported as -0.41 ± 0.14.
In the case of F8L, the abundance fitness is reported as -0.052 ± 0.022.
In the case of F8K, the abundance fitness is reported as -0.961 ± 0.19.
With F8T the abundance fitness was -0.592 ± 0.05.
Variant F8M has an abundance fitness of -0.029 ± 0.027.
F8Y gave an abundance fitness of -0.329 ± 0.048.
In the case of F8P, the abundance fitness is reported as -0.938 ± 0.091.
F8A showed an abundance fitness of -0.58 ± 0.034.
Variant F8W has an abundance fitness of -0.024 ± 0.041.
For F8E, the abundance fitness was -0.711 ± 0.056.
F8N showed an abundance fitness of -0.796 ± 0.069.
Work on F8Q yielded an abundance fitness of -0.835 ± 0.064.
With F8I the abundance fitness was -0.272 ± 0.019.
Work on F8C yielded an abundance fitness of -0.583 ± 0.12.
For A10E, the abundance fitness was -0.003 ± 0.061.
For A10F, the abundance fitness was -0.167 ± 0.028.
Work on A10S yielded an abundance fitness of -0.104 ± 0.025.
With A10I the abundance fitness was -0.203 ± 0.027.
For A10Y, the abundance fitness was -0.164 ± 0.029.
Work on A10H yielded an abundance fitness of -0.16 ± 0.053.
For A10Q, the abundance fitness was -0.15 ± 0.27.
A10T gave an abundance fitness of -0.134 ± 0.065.
With A10K the abundance fitness was -0.092 ± 0.1.
Variant A10V has an abundance fitness of -0.15 ± 0.039.
With A10W the abundance fitness was -0.18 ± 0.054.
Variant A10L has an abundance fitness of -0.063 ± 0.037.
For A10D, the abundance fitness was -0.145 ± 0.033.
